Test results taken from PMC314469, “Protein Interaction Networks by Proteome Peptide Scanning” (PLoS Biology, 2004).

Tests used:
[1] = target: T1, amphyphisin SH3 (AMPH_HUMAN), P49418; assay: SPOT array
T1 chain: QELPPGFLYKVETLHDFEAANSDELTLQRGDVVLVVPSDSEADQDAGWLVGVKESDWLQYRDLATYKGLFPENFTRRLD

[2] = target: endophilin SH3 (SH3G2_HUMAN), Q99962; assay: SPOT array

| Binder | normalised SPOT signal, Boehringer light units (BLU); mean over the file's lines of this peptide [1] | normalised SPOT signal, Boehringer light units (BLU); mean over the file's lines of this peptide [2] |
| --- | --- | --- |
| QGGRPHRPPQGQPP [Q04118 294-308] | 37.1 | 51.3 |
| QALYFSRPFRENVL [Q9H9T8 51-64] | 2250 | 224 |
| QELLPGKPPKSRVL [Q8TC00 766-780] | 49.9 | 156 |
| QIRILKRPTSNGVV [Q9Y403 46-59] | 6.4 | 148 |
| PWQRPKRPGHGHGW [Q03252 424-437] | 43 | 204 |
| QAGPPSRPPRYSSS [AAH32298 59-73] | 13600 | 7540 |
| PWRGFSRPSRFFSS [Q14968 167-180] | 3040 | 218 |
| QILSPPRPPTSPSF [Q9BRZ8 226-240] | 75.8 | 4830 |
| ATAFLQRPSRAGSL [Q9C0A3 966-979] | 15700 | 298 |
| QHYTLGRPGRAPRR [O60275 1399-1412] | 565 | 73 |
| QKQDLRRPKIHGAV [Q9UII6 5-18] | 56.3 | 85.7 |
| PVVLPWRPARAHSS [Q9Y2H3 1375-1388] | 8510 | 2120 |
| PYPLILRPQRGVDL [P47712 557-570] | 351 | 282 |
| QEDSPRKPPNFPVP [Q8TEE1 827-841] | 97.6 | 142 |
| QGPAPRRPTTDQIS [O43566 535-548] | 36.6 | 6570 |
| QAGGPQRPGRVVSL [Q13671 45-58] | 4280 | 556 |
| QGPAPRRPWERGDG [P16066 284-297] | 35.7 | 0 |
| QDSPPPKPPRTRSS [Q05209 329-343] | 20600 | 2900 |
| QFPKLDRPTKQMRE [P78524 721-734] | 116 | 133 |
| QAVFPFKPPQRIEA [Q9Y6X3 59-73] | 80.1 | 62.6 |
| QGIEFLRPLKTTTP [P42357 562-575] | 31.9 | 83.1 |

| Binder | normalised SPOT signal, Boehringer light units (BLU); mean over the file's lines of this peptide [1] | normalised SPOT signal, Boehringer light units (BLU); mean over the file's lines of this peptide [2] |
| --- | --- | --- |
| QALYFSRPFREKVL [O75317 40-53] | 1060 | 226 |
| QAVHLPRPPRVLGL [Q9H960 30-43] | 1920 | 178 |
| QKDVIRRPTFVPQW [Q9P0Y7 137-150] | 22.8 | 91.5 |
| QKFSLRRPLQTAMI [Q96JF9 85-98] | 64.3 | 73.5 |
| QAGFPRRPPPRGTR [Q9UER3 87-101] | 6450 | 7340 |
| ASSRPGRPPKRSLG [BAC03761 161-175] | 6850 | 20200 |
| ASSRPGRPPKRTQS [Q9UI36 281-295] | 950 | 5690 |
| QEALPMRPAREGEL [Q9Y6J9 86-99] | 2910 | 70.9 |
| QAATPRRPAAISRP [Q96E55 116-129] | 178 | 1370 |
| QSDSIRRPLRPGQY [O75878 30-43] | 844 | 378 |
| ASSSPKRPSVERSN [O75764 109-122] | 12.2 | 190 |
| QDAYLSRPGRALAH [Q9UIW2 291-304] | 165 | 219 |
| QGAGPSRPPTPGRN [O95398 328-342] | 1010 | 2220 |
| QASRFQRPGRRMSE [Q9BZ71 507-520] | 4120 | 445 |
| QAAFPRRPPPRGTR [Q9Y5N2 203-217] | 6180 | 6430 |
| QDLRPLRPPAQTPQ [O00456 524-538] | 266 | 154 |
| QGASIRRPSSGNAS [Q13267 138-151] | 33.6 | 124 |
| PVVPPRRPPPPKKT [Q9P2Q1 393-407] | 7830 | 16000 |
| QAQLPPKPPAWAWA [P54098 158-172] | 38.5 | 119 |
| QGSAPLRPFRSGEG [Q9H6J3 73-86] | 7120 | 1840 |
| QAVLPPRPPKVLEF [Q9NWT4 356-370] | 346 | 1570 |
